Laboratory results as given in patent US20260216244A1 (published 2026).

Target: T1, EGFR L858R peptide on HLA-A*03:01 (human)
T1 peptide: KITDFGRAK
Assay: multimer staining

B1: TCR3 (TCR, V domains shown)
Valpha: ENVEQHPSTLSVQEGDSAVIKCTYSDSASNYFPWYKQELGKRPQLIIDIRSNVGEKKDQRIAVTLNKTAKHFSLHITETQPEDSAVYFCAADMRFGAGTRLTVKP
Vbeta: GVTQTPKFRILKIGQSMTLQCTQDMNHNYMYWYRQDPGMGLKLIYYSVGAGITDKGEVPNGYNVSRSTTEDFPLRLELAAPSQTSVYFCASSYSRDSIREQYFGPGTRLTVT
binding result: recognises

B2: TCR4 (TCR, V domains shown)
Valpha: QKEVEQNSGPLSVPEGAIASLNCTYSDRGSQSFFWYRQYSGKSPELIMSIYSNGDKEDGRFTAQLNKASQYVSLLIRDSQPSDSATYLCAVSATGFQKLVFGTGTRLLVSP
Vbeta: QVTQNPRYLITVTGKKLTVTCSQNMNHEYMSWYRQDPGLGLRQIYYSMNVEVTDKGDVPEGYKVSRKEKRNFPLILESPSPNQTSLYFCASTADRGGNEQFFGPGTRLTVL
binding result: recognises
